To fix the notation:
B3: SDR5C1 R226Q, N-terminally His-tagged (enzyme)
chain: MAAACRSVKGLVAVITGGASGLGLATAERLVGQGASAVLLDLPNSGGEAQAKKLGNNCVFAPADVTSEKDVQTALALAKGKFGRVDVAVNCAGIAVASKTYNLKKGQTHTLEDFQRVLDVNLMGTFNVIRLVAGEMGQNEPDQGGQRGVIINTASVAAFEGQVGQAAYSASKGGIVGMTLPIARDLAPIGIRVMTIAPGLFGTPLLTSLPEKVCNFLASQVPFPSQLGDPAEYAHLVQAIIENPFLNGEVIRLDGAIRMQP
B4: SDR5C1 P210S, N-terminally His-tagged (enzyme)
chain: MAAACRSVKGLVAVITGGASGLGLATAERLVGQGASAVLLDLPNSGGEAQAKKLGNNCVFAPADVTSEKDVQTALALAKGKFGRVDVAVNCAGIAVASKTYNLKKGQTHTLEDFQRVLDVNLMGTFNVIRLVAGEMGQNEPDQGGQRGVIINTASVAAFEGQVGQAAYSASKGGIVGMTLPIARDLAPIGIRVMTIAPGLFGTPLLTSLSEKVCNFLASQVPFPSRLGDPAEYAHLVQAIIENPFLNGEVIRLDGAIRMQP
B5: SDR5C1 R130C, N-terminally His-tagged (enzyme)
chain: MAAACRSVKGLVAVITGGASGLGLATAERLVGQGASAVLLDLPNSGGEAQAKKLGNNCVFAPADVTSEKDVQTALALAKGKFGRVDVAVNCAGIAVASKTYNLKKGQTHTLEDFQRVLDVNLMGTFNVICLVAGEMGQNEPDQGGQRGVIINTASVAAFEGQVGQAAYSASKGGIVGMTLPIARDLAPIGIRVMTIAPGLFGTPLLTSLPEKVCNFLASQVPFPSRLGDPAEYAHLVQAIIENPFLNGEVIRLDGAIRMQP
B6: SDR5C1 N247S, N-terminally His-tagged (enzyme)
chain: MAAACRSVKGLVAVITGGASGLGLATAERLVGQGASAVLLDLPNSGGEAQAKKLGNNCVFAPADVTSEKDVQTALALAKGKFGRVDVAVNCAGIAVASKTYNLKKGQTHTLEDFQRVLDVNLMGTFNVIRLVAGEMGQNEPDQGGQRGVIINTASVAAFEGQVGQAAYSASKGGIVGMTLPIARDLAPIGIRVMTIAPGLFGTPLLTSLPEKVCNFLASQVPFPSRLGDPAEYAHLVQAIIENPFLSGEVIRLDGAIRMQP
B7: SDR5C1 K172A, N-terminally His-tagged (enzyme)
chain: MAAACRSVKGLVAVITGGASGLGLATAERLVGQGASAVLLDLPNSGGEAQAKKLGNNCVFAPADVTSEKDVQTALALAKGKFGRVDVAVNCAGIAVASKTYNLKKGQTHTLEDFQRVLDVNLMGTFNVIRLVAGEMGQNEPDQGGQRGVIINTASVAAFEGQVGQAAYSASAGGIVGMTLPIARDLAPIGIRVMTIAPGLFGTPLLTSLPEKVCNFLASQVPFPSRLGDPAEYAHLVQAIIENPFLNGEVIRLDGAIRMQP

Data set [1] concerns the target B7. The data set can be described thus: pull-down.
Data set [2] concerns the target B3. The data set can be described thus: pull-down.
Data set [3] addresses B6. The data set can be described thus: pull-down.
Data set [4] addresses B5. The data set can be described thus: pull-down.
Data set [5] deals with B4. In words: pull-down.
Data set [6] deals with T1, SDR5C1, wild type, N-terminally His-tagged (human), Q99714.
T1 chain: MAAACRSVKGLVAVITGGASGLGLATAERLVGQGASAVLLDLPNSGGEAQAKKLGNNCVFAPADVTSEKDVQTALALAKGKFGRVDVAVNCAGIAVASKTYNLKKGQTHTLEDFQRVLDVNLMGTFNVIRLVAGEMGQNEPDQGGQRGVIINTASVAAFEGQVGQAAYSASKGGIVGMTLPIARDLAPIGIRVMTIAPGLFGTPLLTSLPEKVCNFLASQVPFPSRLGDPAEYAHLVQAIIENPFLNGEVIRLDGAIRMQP
In words: native gel or EMSA. Particulars: remark: other sources report otherwise. On the technique in general: In EMSA bound probe runs differently from free probe, usually more slowly.

The data set “native gel or EMSA” concerns the molecule itself. In words: native gel or EMSA.
The data set “SEC” concerns the molecule itself. The data set can be described thus: SEC. In general terms: Size exclusion chromatography separates by hydrodynamic size, large species first.

What is called stoichiometry N is a count of units in the complex or per binding partner.

B1: TRMT10C, native (untagged) (enzyme)
chain: MSSKIPAVTYPKNESTPPSEELELDKWKTTMKSSVQEECVSTISSSKDEDPLAATREFIEMWRLLGREVPEHITEEELKTLMECVSNTAKKKYLKYLYTKEKVKKARQIKKEMKAAAREEAKNIKLLETTEEDKQKNFLFLRLWDRNMDIAMGWKGAQAMQFGQPLVFDMAYENYMKRKELQNTVSQLLESEGWNRRNVDPFHIYFCNLKIDGALHRELVKRYQEKWDKLLLTSTEKSHVDLFPKDSIIYLTADSPNVMTTFRHDKVYVIGSFVDKSMQPGTSLAKAKRLNLATECLPLDKYLQWEIGNKNLTLDQMIRILLCLKNNGNWQEALQFVPKRKHTGFLEISQHSQEFINRLKKAKT
For the molecule B1, the “Complexed TRMT10C (mass percentage of the complex)” value in data set [1] is 43%; in data set [2], 14.3%; in data set [3] it was 9.3%; in data set [4], 28.7%; in data set [5] it was 39.7%.

B2: SDR5C1, wild type, N-terminally His-tagged, Q99714 1-261 (enzyme)
chain: MAAACRSVKGLVAVITGGASGLGLATAERLVGQGASAVLLDLPNSGGEAQAKKLGNNCVFAPADVTSEKDVQTALALAKGKFGRVDVAVNCAGIAVASKTYNLKKGQTHTLEDFQRVLDVNLMGTFNVIRLVAGEMGQNEPDQGGQRGVIINTASVAAFEGQVGQAAYSASKGGIVGMTLPIARDLAPIGIRVMTIAPGLFGTPLLTSLPEKVCNFLASQVPFPSRLGDPAEYAHLVQAIIENPFLNGEVIRLDGAIRMQP
In data set [6], B2 showed a Tetramerized SDR5C1 (percent) of 100%.
Turning to B3, the “Tetramerized SDR5C1 (percent)” value in the data set “native gel or EMSA” turned out to be 26%.
On to B4, for which, in the data set “SEC”, the “stoichiometry N” value stood at 4. Besides, the “Tetramerized SDR5C1 (percent)” value in the data set “native gel or EMSA” is 100%.
For B5 the same measures were 4 and 100%.
As to B6, the “Tetramerized SDR5C1 (percent)” value in “native gel or EMSA” came to 25.8%.
Take B7: the “stoichiometry N” value in “SEC” worked out at 4. Moreover, the “Tetramerized SDR5C1 (percent)” value in “native gel or EMSA” amounted to 100%.
